In patent US20030236190A1 (published 2003):
Positions of bridges follow the written chain, without caps; N, C: chain ends. No end group written: not given here.

B1: H2CA-4-H6-IGFR (peptide)
peptide: VGRASGFPENFYDWFGRQLSLQSGEQ
B2: 20E2A-3-A12-IGFR (peptide)
peptide: LSVALSFYDALGQLVAGEGRW
B3: B6L-4-D7-IR (peptide)
peptide: AETSVQVGWIRLQSVWPGEHWNTVDPFYHKLSELLRGSGA
B4: B6Hα-2-D6-IR (peptide)
peptide: GRTMAVMAAGGPDDPFYHKLSELVQGG
B5: H6Hα-4-G8-IR (peptide)
peptide: GGTKAVAKVGTRDDPFYHKLSELLQGS
B6: B6Hα-3-F7-IR (peptide)
peptide: SRVAATKEKRPSDDPFYHKLSELLQGS
B7: A6L-0-E6-IR (peptide)
peptide: YRGMLVLGRSSDGAGKVAFERPARIGQTVFAVNFYDWFV
B8: B6Hα-3-E7-IR (peptide)
peptide: GCAVVEEAERSRGDPFYHKLSELIQGC
modifications: disulfide 2-27 (inferred)
B9: H2CA-4-G9-IGFR (peptide)
peptide: GIISQSCPESFYDWFAGQVSDPWWCW
B10: H2CA-4-F11-IGFR (peptide)
peptide: SAAQLFFQESFYDWFLRQVAESSQPN
B11: 20E2A-3-D10-IGFR (peptide)
peptide: MMVVDGFYDALHQLVVAQSLG
B12: B6Hα-2-D1-IR (peptide)
peptide: GCEVIVEEGDSADPFYHKLSELCQGS
modifications: disulfide 2-23 (inferred)
B13: H2CA-4-H8-IGFR (peptide)
peptide: SACQFDCHENFYDWFARQVSGGAAYG
modifications: not fully specified (bridges); cysteine pairing not given here
B14: B6Hα-1-A3-IR (peptide)
peptide: SRAKVEAEMPDSGDPFYHKLSELLASG
B15: H2CA-4-F5-IGFR (peptide)
peptide: VGYQGQGDENFYDWFIRQVSGRLGVQ
B16: RB521 (peptide)
peptide: MADYKDDDDKGSLDESFYDWFERQLGKKGGSGGSGSLDESFYDWFERQLGKKAAAGAPVPYPDPLEPRPG
notes: Recombinant F1-F1 dimer peptide with tags at both ends
B17: RB509 (peptide)
peptide: DYKDDDDKVRVDWLQRNANFYAWFVAELGGGSGGSGGSGGSGRVDWLQRNANFYDWFVAELGAAAGAPVPYPDPLEPRAA
B18: RB463 (other, not shown: large carriers)
chain: NNNNLGIEGRISEFIEGRAQPAMAFHENFYDWFVRQVSGGSFHENFYDWFVRQVSAAAGAPVPYPDPLEPRAA
notes: MBP fusion, uncleaved
B19: RB535 (peptide)
peptide: MADYKDDDDKGSLDESFYDWFERQLGKKGGSGGSGGSGGSGSLDESFYDWFERQLGKKAAAGAPVPYPDPLEPRPG
notes: as for B16
B20: RB436 (other, not shown: large carriers)
chain: NNNNLGIEGRISEFIEGRAQPAMAFHENFYDWFVRQVSGGSGGSGGSFHENFYDWFVRQVSAAAGAPVPYPDPLEPRAA
notes: MBP fusion, uncleaved
B21: RB626 (peptide)
peptide: MADYKDEIEAEWGRVRCLVYGRCVGGGGSGGSGGSGGSGSLDESFYDWFERQLGKKAAAGAPVPYPDPLEPRPG
notes: Recombinant F6-F1 dimer peptide with tags at both ends
B22: RB570 (peptide)
peptide: MQNDDGSLDESFYDWFERQLGEEEGGDHHHHHHPG
notes: F1 monomer with a His tag
B23: RB537 (peptide)
peptide: MADYKDDDDKGSLDESFYDWFERQLGKKGGSGGSWLDQEWAWVQCEVYGRGCPSAAAGAPVPYPDPLEPRPG
notes: Recombinant F1-F6 (Site 1-Site 2) dimer peptide with tags at both ends
B24: RB437 (other, not shown: large carriers)
chain: NNNNLGIEGRISEFIEGRAQPAMAFHENFYDWFVRQVSAAAGAPVPYPDPLEPRAA
notes: MBP fusion, uncleaved
B25: RB540 (peptide)
peptide: MADYKDDDDKWLDQEWAWVQCEVYGRGCPSAAAGAPVPYPDPLEPRPG
notes: Recombinant F6 monomer peptide with tags at both ends
B26: RB622 (peptide)
peptide: MADYKDDDDKWLDQEWAWVQCEVYGRGCPSTPKPPTPPPLSADGSLDESFYDWFERQLGKKAAAGAPVPYPDPLEPRPG
notes: as for B21
B27: RB517 (peptide)
peptide: DYKDDDDKHLCVLEELFWGASLFGYCSGGGSGGSHLCVLEELFWGASLFGYCSGAAAGAPVPYPDPLEPRAA
B28: RB596 (peptide)
peptide: MQNDDGSLDESFYDWFERQLGHHHHHHPG
notes: F1 monomer with a His tag
B29: RB508 (peptide)
peptide: DYKDDDDKVRVDWLQRNANFYDWFVAELGGGSGGSGRVDWLQRNANFYDWFVAELGAAAGAPVPYPDPLEPRSA
B30: RB539 (peptide)
peptide: MADYKDDDDKWLDQEWAWVQCEVYGRGCPSGGSGGSGSLDESFYDWFERQLGKKAAAGAPVPYPDPLEPRPG
notes: Recombinant F6-F1 (Site 2-Site 1) dimer peptide with tags at both ends
B31: RB435 (other, not shown: large carriers)
chain: NNNNLGIEGRISEFIEGRAQPAMAFHENFYDWFVRQVSGGSFHENFYDWFVRQVSGGSFHENFYDWFVRQVSAAAGAPVPYPDPLEPRAA
notes: MBP fusion, uncleaved
B32: RB625 (peptide)
peptide: MADYKDDDDKWLDQEWAWVQCEVYGRGCPSQPPPPDITTHRADPQGSLDESFYDWFERQLGKKAAAGAPVPYPDPLEPRPG
notes: as for B21
B33: RB538 (peptide)
peptide: MADYKDDDDKGSLDESFYDWFERQLGKKGGSGGSGGSGGSWLDQEWAWVQCEVYGRGCPSAAAGAPVPYPDPLEPRPG
notes: as for B23
B34: RB569 (peptide)
peptide: MGSLDESFYDWFERQLGEEEGGDHHHHHHPG
notes: F1 monomer with a His tag

target: T1, Soluble IGF-1R (R&D Systems, Cat. # 391-GR/CF); recombinant human IGF-1R (human, UniProt P08069 31-935); assay: phage ELISA, vs IR
T1 construct: extracellular domain; Eu3+-labelled in the TR-FRET assays; also called sIGF-1R; rhIGF-1R

Row | Binder | IGF-1R/IR Comparison
1 | B1 | 14.6 ratio
2 | B2 | 3.9 ratio
3 | B3 | 3.4 ratio
4 | B4 | 4.4 ratio
5 | B5 | 3.6 ratio
6 | B6 | 3.1 ratio
7 | B7 | 17 ratio
8 | B8 | 4.3 ratio
9 | B9 | 16 ratio
10 | B10 | 6.7 ratio
11 | B11 | 3.9 ratio
12 | B12 | 4.2 ratio
13 | B13 | 9.4 ratio
14 | B14 | 3.3 ratio
15 | B15 | 12.3 ratio

target: T1, Soluble IGF-1R (R&D Systems, Cat. # …); assay: phage ELISA vs milk

Row | Binder | Ratio over Background
16 | B1 | 10.5 fold
17 | B2 | 4.3 fold
18 | B3 | 4.8 fold
19 | B4 | 4.4 fold
20 | B5 | 6.1 fold
21 | B6 | 3.1 fold
22 | B7 | 31 fold
23 | B8 | 5.6 fold
24 | B9 | 9.5 fold
25 | B10 | 6.8 fold
26 | B11 | 6.9 fold
27 | B12 | 5.4 fold
28 | B13 | 9.2 fold
29 | B14 | 2.6 fold
30 | B15 | 9.7 fold

target: T2, Insulin receptor prepared according to Bass et al., 1996: soluble human insulin receptor-immunoglobulin heavy … (human, UniProt P06213 28-956); assay: phage ELISA vs milk
T2 construct: extracellular domain; Eu3+-labelled in TR-FRET; also called IR; sIR-Fc; not shown: immunoglobulin heavy chain constant domains that replace the transmembrane and i

Row | Binder | Ratio over Background
31 | B1 | 0.7 fold
32 | B2 | 1.1 fold
33 | B3 | 1.4 fold
34 | B4 | 1 fold
35 | B5 | 1.7 fold
36 | B6 | 1 fold
37 | B7 | 1.8 fold
38 | B8 | 1.3 fold
39 | B9 | 0.6 fold
40 | B10 | 1 fold
41 | B11 | 1.8 fold
42 | B12 | 1.3 fold
43 | B13 | 1 fold
44 | B14 | 0.8 fold
45 | B15 | 0.8 fold

target: T2, Insulin receptor prepared according to …; assay: phage ELISA, vs IGF-1R

Row | Binder | IR/IGF-1R Comparison
46 | B1 | 0.1 ratio
47 | B2 | 0.3 ratio
48 | B3 | 0.3 ratio
49 | B4 | 0.2 ratio
50 | B5 | 0.3 ratio
51 | B6 | 0.3 ratio
52 | B7 | 0.1 ratio
53 | B8 | 0.2 ratio
54 | B9 | 0.1 ratio
55 | B10 | 0.1 ratio
56 | B11 | 0.3 ratio
57 | B12 | 0.2 ratio
58 | B13 | 0.1 ratio
59 | B14 | 0.3 ratio
60 | B15 | 0.1 ratio

target: human insulin receptor (HIR) (human, UniProt P06213 28-1382, limits assumed); assay: HIR Kd, Table 14; competition with 125I-insulin on solubilised HIR (method of Example 3, not restated for this table)

Row | Binder | Kd
61 | B16 | 44 nM
62 | B17 | 55 nM
63 | B18 | 960 nM
64 | B19 | ~100 nM
65 | B20 | 410 nM
66 | B21 | 0.3 nM
67 | B22 | 25 nM
68 | B23 | 0.059 nM
69 | B24 | 8300 nM
70 | B25 | ~100 nM
71 | B26 | 1 nM
72 | B27 | 6000 nM
73 | B28 | 94 nM
74 | B29 | 150 nM
75 | B30 | 0.7 nM
76 | B31 | 2000 nM
77 | B32 | 0.38 nM
78 | B33 | 0.017 nM
79 | B34 | 210 nM
